Sequences and labels used below:
B1: h10C3.V1 HC G49S (antibody, human IgG1, name in Kabat numbering, V domains shown)
VH: EQQLVESGGGLVQPGGSLRLSCAASGFSLSGYTMGWVRQAPGKGLEYISVISSGGTTYYTNWAKGRFTISKDSSKNTVYLQMGSLRAEDMAVYFCARVAFTAYGGGGFPTLHRLDLWGQGTLVTVSS
VL: DQVLTQSPDSLAVSLGERATINCQSSESVYNNDYLAWYQQKPGQPPKLLIYSASTLASGVPDRFSGSGSGTDFTLTISSLQAEDVAVYYCAGGYLGNNVFGGGTKVEIK
notes: Framework variant of h10C3.v1 (human IgG1)
B2: h10C3.V1 HC S73N (antibody, human IgG1, name in Kabat numbering, V domains shown)
VH: EQQLVESGGGLVQPGGSLRLSCAASGFSLSGYTMGWVRQAPGKGLEYIGVISSGGTTYYTNWAKGRFTISKDNSKNTVYLQMGSLRAEDMAVYFCARVAFTAYGGGGFPTLHRLDLWGQGTLVTVSS
VL: DQVLTQSPDSLAVSLGERATINCQSSESVYNNDYLAWYQQKPGQPPKLLIYSASTLASGVPDRFSGSGSGTDFTLTISSLQAEDVAVYYCAGGYLGNNVFGGGTKVEIK
notes: as for B1
B3: h10C3.V1 HC Q2V (antibody, human IgG1, name in Kabat numbering, V domains shown)
VH: EVQLVESGGGLVQPGGSLRLSCAASGFSLSGYTMGWVRQAPGKGLEYIGVISSGGTTYYTNWAKGRFTISKDSSKNTVYLQMGSLRAEDMAVYFCARVAFTAYGGGGFPTLHRLDLWGQGTLVTVSS
VL: DQVLTQSPDSLAVSLGERATINCQSSESVYNNDYLAWYQQKPGQPPKLLIYSASTLASGVPDRFSGSGSGTDFTLTISSLQAEDVAVYYCAGGYLGNNVFGGGTKVEIK
notes: as for B1
B4: h10C3.V1 HC K71R (antibody, human IgG1, name in Kabat numbering, V domains shown)
VH: EQQLVESGGGLVQPGGSLRLSCAASGFSLSGYTMGWVRQAPGKGLEYIGVISSGGTTYYTNWAKGRFTISRDSSKNTVYLQMGSLRAEDMAVYFCARVAFTAYGGGGFPTLHRLDLWGQGTLVTVSS
VL: DQVLTQSPDSLAVSLGERATINCQSSESVYNNDYLAWYQQKPGQPPKLLIYSASTLASGVPDRFSGSGSGTDFTLTISSLQAEDVAVYYCAGGYLGNNVFGGGTKVEIK
notes: as for B1
B5: h10C3.V1 LC L4M (antibody, human IgG1, name in Kabat numbering, V domains shown)
VH: EQQLVESGGGLVQPGGSLRLSCAASGFSLSGYTMGWVRQAPGKGLEYIGVISSGGTTYYTNWAKGRFTISKDSSKNTVYLQMGSLRAEDMAVYFCARVAFTAYGGGGFPTLHRLDLWGQGTLVTVSS
VL: DQVMTQSPDSLAVSLGERATINCQSSESVYNNDYLAWYQQKPGQPPKLLIYSASTLASGVPDRFSGSGSGTDFTLTISSLQAEDVAVYYCAGGYLGNNVFGGGTKVEIK
notes: as for B1
B6: h10C3.V1 HC I48V (antibody, human IgG1, name in Kabat numbering, V domains shown)
VH: EQQLVESGGGLVQPGGSLRLSCAASGFSLSGYTMGWVRQAPGKGLEYVGVISSGGTTYYTNWAKGRFTISKDSSKNTVYLQMGSLRAEDMAVYFCARVAFTAYGGGGFPTLHRLDLWGQGTLVTVSS
VL: DQVLTQSPDSLAVSLGERATINCQSSESVYNNDYLAWYQQKPGQPPKLLIYSASTLASGVPDRFSGSGSGTDFTLTISSLQAEDVAVYYCAGGYLGNNVFGGGTKVEIK
notes: as for B1
B7: h10C3.V1 LC Q2I (antibody, human IgG1, name in Kabat numbering, V domains shown)
VH: EQQLVESGGGLVQPGGSLRLSCAASGFSLSGYTMGWVRQAPGKGLEYIGVISSGGTTYYTNWAKGRFTISKDSSKNTVYLQMGSLRAEDMAVYFCARVAFTAYGGGGFPTLHRLDLWGQGTLVTVSS
VL: DIVLTQSPDSLAVSLGERATINCQSSESVYNNDYLAWYQQKPGQPPKLLIYSASTLASGVPDRFSGSGSGTDFTLTISSLQAEDVAVYYCAGGYLGNNVFGGGTKVEIK
notes: as for B1
B8: h10C3.V1 HC V78L (antibody, human IgG1, name in Kabat numbering, V domains shown)
VH: EQQLVESGGGLVQPGGSLRLSCAASGFSLSGYTMGWVRQAPGKGLEYIGVISSGGTTYYTNWAKGRFTISKDSSKNTLYLQMGSLRAEDMAVYFCARVAFTAYGGGGFPTLHRLDLWGQGTLVTVSS
VL: DQVLTQSPDSLAVSLGERATINCQSSESVYNNDYLAWYQQKPGQPPKLLIYSASTLASGVPDRFSGSGSGTDFTLTISSLQAEDVAVYYCAGGYLGNNVFGGGTKVEIK
notes: as for B1
B9: h9E3.FN.V1 HC F91Y (antibody, name in Kabat numbering, V domains shown)
VH: EQQLVESGGGLIQPGGSLRLSCAVSGFSLSSNAMSWVRQAPGKGLEWIGIISSSGSTYSASWAKGRFTISKDSSKNTMYLQMNSLRAEDTAVYYCARVGFFVGYGAYDYGIIHRLDLWGQGTLVTVSS
VL: DAQLTQSPSTLSASVGDRVTITCQSSKSIYNNNWLSWYQQKPGKPPKLLIYDASDLASGVPSRFSGSGSGTEFTLTISSLQPDDFATYYCAGGYSGDSDYAFGGGTKVEIK
notes: Framework variant of h9E3.FN.v1 (human IgG1)
B10: h9E3.FN.V1 HC G49S (antibody, human IgG1, name in Kabat numbering, V domains shown)
VH: EQQLVESGGGLIQPGGSLRLSCAVSGFSLSSNAMSWVRQAPGKGLEWISIISSSGSTYSASWAKGRFTISKDSSKNTMYLQMNSLRAEDTAVYFCARVGFFVGYGAYDYGIIHRLDLWGQGTLVTVSS
VL: DAQLTQSPSTLSASVGDRVTITCQSSKSIYNNNWLSWYQQKPGKPPKLLIYDASDLASGVPSRFSGSGSGTEFTLTISSLQPDDFATYYCAGGYSGDSDYAFGGGTKVEIK
notes: as for B9
B11: h9E3.FN.V1 HC K71R (antibody, human IgG1, name in Kabat numbering, V domains shown)
VH: EQQLVESGGGLIQPGGSLRLSCAVSGFSLSSNAMSWVRQAPGKGLEWIGIISSSGSTYSASWAKGRFTISRDSSKNTMYLQMNSLRAEDTAVYFCARVGFFVGYGAYDYGIIHRLDLWGQGTLVTVSS
VL: DAQLTQSPSTLSASVGDRVTITCQSSKSIYNNNWLSWYQQKPGKPPKLLIYDASDLASGVPSRFSGSGSGTEFTLTISSLQPDDFATYYCAGGYSGDSDYAFGGGTKVEIK
notes: as for B9
B12: h9E3.FN.V1 LC L4M (antibody, human IgG1, name in Kabat numbering, V domains shown)
VH: EQQLVESGGGLIQPGGSLRLSCAVSGFSLSSNAMSWVRQAPGKGLEWIGIISSSGSTYSASWAKGRFTISKDSSKNTMYLQMNSLRAEDTAVYFCARVGFFVGYGAYDYGIIHRLDLWGQGTLVTVSS
VL: DAQMTQSPSTLSASVGDRVTITCQSSKSIYNNNWLSWYQQKPGKPPKLLIYDASDLASGVPSRFSGSGSGTEFTLTISSLQPDDFATYYCAGGYSGDSDYAFGGGTKVEIK
notes: as for B9
B13: h9E3.FN.V1 HC V24A (antibody, human IgG1, name in Kabat numbering, V domains shown)
VH: EQQLVESGGGLIQPGGSLRLSCAASGFSLSSNAMSWVRQAPGKGLEWIGIISSSGSTYSASWAKGRFTISKDSSKNTMYLQMNSLRAEDTAVYFCARVGFFVGYGAYDYGIIHRLDLWGQGTLVTVSS
VL: DAQLTQSPSTLSASVGDRVTITCQSSKSIYNNNWLSWYQQKPGKPPKLLIYDASDLASGVPSRFSGSGSGTEFTLTISSLQPDDFATYYCAGGYSGDSDYAFGGGTKVEIK
notes: as for B9
B14: h9E3.FN.V1 LC A2I (antibody, human IgG1, name in Kabat numbering, V domains shown)
VH: EQQLVESGGGLIQPGGSLRLSCAVSGFSLSSNAMSWVRQAPGKGLEWIGIISSSGSTYSASWAKGRFTISKDSSKNTMYLQMNSLRAEDTAVYFCARVGFFVGYGAYDYGIIHRLDLWGQGTLVTVSS
VL: DIQLTQSPSTLSASVGDRVTITCQSSKSIYNNNWLSWYQQKPGKPPKLLIYDASDLASGVPSRFSGSGSGTEFTLTISSLQPDDFATYYCAGGYSGDSDYAFGGGTKVEIK
notes: as for B9
B15: h9E3.FN.V1 HC Q2V (antibody, human IgG1, name in Kabat numbering, V domains shown)
VH: EVQLVESGGGLIQPGGSLRLSCAVSGFSLSSNAMSWVRQAPGKGLEWIGIISSSGSTYSASWAKGRFTISKDSSKNTMYLQMNSLRAEDTAVYFCARVGFFVGYGAYDYGIIHRLDLWGQGTLVTVSS
VL: DAQLTQSPSTLSASVGDRVTITCQSSKSIYNNNWLSWYQQKPGKPPKLLIYDASDLASGVPSRFSGSGSGTEFTLTISSLQPDDFATYYCAGGYSGDSDYAFGGGTKVEIK
notes: as for B9
B16: h9E3.FN.V1 HC S73N (antibody, human IgG1, name in Kabat numbering, V domains shown)
VH: EQQLVESGGGLIQPGGSLRLSCAVSGFSLSSNAMSWVRQAPGKGLEWIGIISSSGSTYSASWAKGRFTISKDNSKNTMYLQMNSLRAEDTAVYFCARVGFFVGYGAYDYGIIHRLDLWGQGTLVTVSS
VL: DAQLTQSPSTLSASVGDRVTITCQSSKSIYNNNWLSWYQQKPGKPPKLLIYDASDLASGVPSRFSGSGSGTEFTLTISSLQPDDFATYYCAGGYSGDSDYAFGGGTKVEIK
notes: as for B9
B17: h9E3.FN.V1 HC I48V (antibody, human IgG1, name in Kabat numbering, V domains shown)
VH: EQQLVESGGGLIQPGGSLRLSCAVSGFSLSSNAMSWVRQAPGKGLEWVGIISSSGSTYSASWAKGRFTISKDSSKNTMYLQMNSLRAEDTAVYFCARVGFFVGYGAYDYGIIHRLDLWGQGTLVTVSS
VL: DAQLTQSPSTLSASVGDRVTITCQSSKSIYNNNWLSWYQQKPGKPPKLLIYDASDLASGVPSRFSGSGSGTEFTLTISSLQPDDFATYYCAGGYSGDSDYAFGGGTKVEIK
notes: as for B9
B18: h9E3.FN.V1 HC M78L (antibody, human IgG1, name in Kabat numbering, V domains shown)
VH: EQQLVESGGGLIQPGGSLRLSCAVSGFSLSSNAMSWVRQAPGKGLEWIGIISSSGSTYSASWAKGRFTISKDSSKNTLYLQMNSLRAEDTAVYFCARVGFFVGYGAYDYGIIHRLDLWGQGTLVTVSS
VL: DAQLTQSPSTLSASVGDRVTITCQSSKSIYNNNWLSWYQQKPGKPPKLLIYDASDLASGVPSRFSGSGSGTEFTLTISSLQPDDFATYYCAGGYSGDSDYAFGGGTKVEIK
notes: as for B9

In general, Kd refers to a measure of binding affinity in units of concentration. A high value points to lower affinity.

In this assay the target is T1, human MerTK (human, UniProt Q12866 26-499).
T1 construct: also called HuMER
T1 sequence: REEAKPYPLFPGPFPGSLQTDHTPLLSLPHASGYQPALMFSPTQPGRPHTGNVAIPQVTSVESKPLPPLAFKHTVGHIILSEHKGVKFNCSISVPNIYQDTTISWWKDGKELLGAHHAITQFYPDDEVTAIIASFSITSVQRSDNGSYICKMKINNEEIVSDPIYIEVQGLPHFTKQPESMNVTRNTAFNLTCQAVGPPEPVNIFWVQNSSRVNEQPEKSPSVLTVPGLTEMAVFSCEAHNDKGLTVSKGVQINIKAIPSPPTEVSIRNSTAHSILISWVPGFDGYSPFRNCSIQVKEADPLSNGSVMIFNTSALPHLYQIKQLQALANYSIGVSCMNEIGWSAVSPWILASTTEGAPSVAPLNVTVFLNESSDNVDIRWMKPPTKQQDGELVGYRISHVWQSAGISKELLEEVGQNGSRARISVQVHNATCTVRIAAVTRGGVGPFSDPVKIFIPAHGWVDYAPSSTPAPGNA
Kind of assay: SPR BIAcore T200, Ab captured, 37C. On the procedure:
Each humanized mutation variant was subject to BIAcore analysis to determine the important rabbit residues for binding and stability. Binding affinity determinations were obtained using Surface Plasmon Resonance (SRP) measurements from a BIAcore™-T200 instrument. Briefly, each humanized mutation variant antibody was captured to achieve approximately 100 RU (Response Units). Then, 3-fold serial dilutions of human MerTK (0.4 nM to 100 nM) diluted in HBS-EP buffer (0.01M HEPES pH 7.4, 0.15M NaCl, 3 mM EDTA and 0.05% v/v surfactant P20) was injected into the BIAcore™-T200 instrument at 37° C. with a flow rate of 30 μl/min. Association rates (kₒₙ) and dissociation rates (koff) were calculated using a simple one-to-one Langmuir binding model (BIAcore T200 evaluation software version 2.0). The equilibrium dissociation constant (KD) was calculated as the ratio koff/kₒₙ.
A general note: SPR reads the build-up and loss of mass on a sensor chip optically.
For B1, the Kd came out at 30.2 nM.

As for B2, binding was characterised by a dissociation constant (Kd) of 15 nM.

On to B3, for which the affinity, expressed as Kd, was 12.5 nM.

B4: binding was characterised by a dissociation constant (Kd) of 20 nM.

Turning to B5, the Kd amounted to 12.3 nM. This Kd lies about 1.6-fold lower than the previous one.

The molecule B6 had a Kd of 17.1 nM. This Kd and that of the molecule before are within 1.5-fold of each other.

For B7, the affinity, expressed as Kd, was 17.1 nM. This lies in the double-digit nanomolar range.

In turn, B8 returned a Kd of 7.4 nM.

In turn, B9 came in with a Kd of 11.5 nM.

As for B10, the dissociation constant Kd came out at 5.6 nM.

B11 came in with a Kd of 41.3 nM.

For B12, binding was put at a Kd of 7.5 nM.

The molecule B13 came in with a Kd of 8.7 nM.

The molecule B14 gave a Kd of 10.7 nM. The Kd values of the last two molecules are within 1.5-fold of each other.

The molecule B15 gave a Kd of 10.2 nM. The Kd values of the last two molecules are within 1.5-fold of each other.

The molecule B16 yielded a dissociation constant (Kd) of 12.3 nM. This Kd and that of the molecule before are within 1.5-fold of each other.

On to B17, for which the Kd was determined as 10.2 nM.

The molecule B18 had a Kd of 12.5 nM.

The record behind these values is patent US20220135701A1 (Genentech, published 2022).
